Data on five molecules can be found in patent US20050065327A1 (AstraZeneca / MedImmune, published 2005).

Residue numbers refer to the chain shown, from its start.

Holding throughout (test): cell-based or functional assay
The target in assay [1] is non-human primate IL-13 (rhesus and cynomolgus, identical sequences) with carboxyl terminus affinity tag … (rhesus and cynomolgus monkey).
The target of assay [2] is human IL-13 (recombinant, bacterially derived, Peprotech) (human, UniProt P35225 15-146).
Sequence of human IL-13 (recombinant, bacterially derived, Peprotech) (P35225 other isoform, or with tags, fused parts or gaps): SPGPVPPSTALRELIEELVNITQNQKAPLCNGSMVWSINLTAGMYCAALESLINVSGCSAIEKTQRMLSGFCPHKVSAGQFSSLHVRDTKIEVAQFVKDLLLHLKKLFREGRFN
For assay [3], the target named is native (naturally occurring) human IL-13 released from HDLM-2 cells (human, UniProt P35225 15-146).
Sequence of native (naturally occurring) human IL-13 released from HDLM-2 cells (P35225 other isoform, or with tags, fused parts or gaps): as above

Sequence of non-human primate IL-13 (rhesus and cynomolgus, identical sequences) with carboxyl terminus affinity tag … (rhesus and cynomolgus monkey) (Q864V6 19-132): as the sequence (P35225 other isoform, or with tags, fused parts or gaps) above, with G3S, P7R, R12K, M44V, S69N, H85R, L102V counted along it

B1: BAK502G9 IgG4 (antibody, V domains shown)
VH: QVQLVQSGAEVKKPGASVKVSCKASGYTFTNYGLSWVRQAPGQGLEWMGWISANNGDTNYGQEFQGRVTMTTDTSTSTAYMELRSLRSDDTAVYYCARDSSSSWARWFFDLWGRGTLVTVSS
VL: SYVLTQPPSVSVAPGKTARITCGGNIIGSKLVHWYQQKPGQAPVLVIYDDGDRPSGIPERFSGSNSGNTATLTISRVEAGDEADYYCQVWDTGSDPVVFGGGTKLTVL
With B1, the “IC50, TF-1 cell proliferation assay” value in assay [1] worked out at 2 nM.

B2: BAK1167F2 scFv (scFv, V domains shown)
VH: B1 VH with T30E, N31Q, Y32T, L34V
VL: B1 VL
As for B2, in assay [2], the “Mean TF1 IC50” value was found to be 0.2 nM.

B3: BAK502G9 scFv (scFv, V domains shown)
VH: B1 VH
VL: B1 VL
Turning to B3, the “Mean TF1 IC50” value in assay [2] is 8 nM.

B4: BAK1183H4 scFv (scFv, V domains shown)
VH: B1 VH with S52N, A53Y, N54D, N55G, D57N, N59Q
VL: B1 VL
On to B4, for which the “Mean TF1 IC50” value in assay [2] is 0.2 nM.

B5: BAK1183H4 IgG4 (antibody, V domains shown)
VH: B1 VH with S52N, A53Y, N54D, N55G, D57N, N59Q
VL: B1 VL
As to B5, in assay [3], the “IC50, HDLM-2 cell proliferation assay” value was 3500 nM.
